# Reference: paper doi:10.1101/2024.11.20.624486
# Target: GST-HktR (Pseudomonas syringae pv. actinidiae M228)
# Experiment: MST
substance,measurement,value
RpoD-His6 (natural protein),Kd,1790 nM
